Results from the supplement of paper PMC7125110.
± gives the standard error. Fewer inactive variants are shown than the library holds.

B1: glmS ribozyme (parent)
chain: AUAAAAGCGCCAGAACUACAGAAAUGUAGUUGACGAGGAGGAGGUUUAUCGAAUUUUCGGCGGAUGCCUCCAAA

How the values were obtained:
Details in all cases: with glucosamine-6-phosphate
glucosamine-6-phosphate [1] = variants of: B1; test: self-cleavage kobs at 40 uM GlcN6P; higher = faster cleavage; RNA array
In short: (§1)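 Barcoded ribozyme variants were transcribed in situ on sequenced MiSeq chips by E. coli RNA polymerase. At 37 °C, a hybridised Cy3 probe tracked them while glucosamine-6-phosphate (40 μM to 10 mM) in HEPES/KCl/Mg(OAc)2 buffer flowed in and tiles were imaged over ~14 h. Per-tile medians of signals normalised to baseline and to non-cleaving reference variants were fit to one- or two-exponential decays, giving kobs. kcat and KM came from weighted Michaelis–Menten fits across concentrations.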

glucosamine-6-phosphate [2] = variants of: B1; test: self-cleavage kobs at 2500 uM GlcN6P; higher = faster cleavage; RNA array
In short: as §1

glucosamine-6-phosphate [3] = variants of: B1; test: self-cleavage kobs at 10000 uM GlcN6P; higher = faster cleavage; RNA array
In short: as §1

glucosamine-6-phosphate [4] = variants of: B1; test: self-cleavage kobs at 160 uM GlcN6P; higher = faster cleavage; RNA array
In short: as §1

glucosamine-6-phosphate [5] = variants of: B1; test: self-cleavage kobs at 640 uM GlcN6P; higher = faster cleavage; RNA array
In short: as §1

| Variant | self-cleavage kobs at 40 uM GlcN6P (glucosamine-6-phosphate [1]) | self-cleavage kobs at 2500 uM GlcN6P (glucosamine-6-phosphate [2]) | self-cleavage kobs at 10000 uM GlcN6P (glucosamine-6-phosphate [3]) | self-cleavage kobs at 160 uM GlcN6P (glucosamine-6-phosphate [4]) | self-cleavage kobs at 640 uM GlcN6P (glucosamine-6-phosphate [5]) |
| --- | --- | --- | --- | --- | --- |
| AUAAAAGCGCCUGAACUACAGAAAUGUAGUUGAUGAGGAGUAGGUUUAUCGAAUUUUCGGCGGAUCCCUCCAAA | < 1e-05 s⁻¹ | < 1e-05 s⁻¹ | < 1e-05 s⁻¹ | – | – |
| AUAAAAGCGCCAGAACUACAGAAAUGUAGUUGACAAGGAGGGGGUUUAUCGAAUUUUCGGCGGAUGCCUCCAAA | < 1e-05 s⁻¹ | < 1e-05 s⁻¹ | < 1e-05 s⁻¹ | < 1e-05 s⁻¹ | < 1e-05 s⁻¹ |
| AUAAAAGCGCCCGAACUACAGAAAUGUAGUUGACGAGGAGGAGGUUUAUCGAAUUUUCGGCCGAUGCCUCCAAA | < 1e-05 s⁻¹ | < 1e-05 s⁻¹ | < 1e-05 s⁻¹ | – | – |
| AUAAAAGGGCCAGAACUACAGAAAUGUAGUUGACGAGGAGGAUGUUUAUCGAAUUUUCGGCGGAAGCCUCGAAA | < 1e-05 s⁻¹ | < 1e-05 s⁻¹ | < 1e-05 s⁻¹ | – | < 1e-05 s⁻¹ |
| AUAAAAGGGCCAGAACUACAGAAAUGUAGUUGACGAGGAGGAGGGUGAUCGAAUUUUUGGCGGAUUCCUCUAAA | < 1e-05 s⁻¹ | – | – | – | – |
| AUAAAAGCGCCAAAACUACAGAAAUGUAGUUGACGAGGAGGAGGUCUAUCGAAUUUUCGGCGGAUGACUCCAAA | < 1e-05 s⁻¹ | – | – | – | < 1e-05 s⁻¹ |
| AUAAAAGCACCAGAACUACAGAAAUGUAAUAGACUCGGAGGAGGUUUAUCGAAUUUUCGGCGGAUGCCUUCAAA | < 1e-05 s⁻¹ | – | < 1e-05 s⁻¹ | – | – |
| AUAAAAGCUCCAGAACUACAGAAAUGUAGUGGACGAGGAGGAGGUUUAUCGAAUUUUCGGCGGAUGCCUCCAAA | < 1e-05 s⁻¹ | < 1e-05 s⁻¹ | < 1e-05 s⁻¹ | < 1e-05 s⁻¹ | < 1e-05 s⁻¹ |
| AUAAAAGCGCCAGAACUACAGAAAUGUAGUUAACGAGGAGGAGGUUCGUCGAAUUUUCGGCGGAUGCCUCUAAA | < 1e-05 s⁻¹ | – | – | – | – |
| AUAAAAGCGCCAGAACUACAGAAAUGUAGUUGAUGAGGAGGAGGUUUAUCGAAUGUUCGGCGGAUGCCUCUAAA | < 1e-05 s⁻¹ | – | – | – | – |
| AUAAAAGCGCCUGAACUACAGAAAUGUAGUUGACGAGGUGGAGGUUUAUCGAAUUUUCGGCGGAUGCCUCCAAA | 0.00122 ± 0.00014 s⁻¹ | 0.00925 ± 0.0022 s⁻¹ | 0.0541 ± 0.013 s⁻¹ | 0.0029 ± 0.00074 s⁻¹ | 0.0129 ± 0.0047 s⁻¹ |
| AUAAAAGCGCCAGAACUACAGAAAUGUAGUUGACGAGGAGGAGUUUUAUCUAAUUUUCGGCGGAUGGCUCCAAA | < 1e-05 s⁻¹ | < 1e-05 s⁻¹ | < 1e-05 s⁻¹ | – | – |
| AUAAAAGCGCCAGAACUACAGAAAUGUAGUUGACGAGGAGGAGGUUUAUCGAGUUUUCGGGGGAUGCCUUCAAA | < 1e-05 s⁻¹ | – | < 1e-05 s⁻¹ | – | – |
| AUAAAAGCGCGAGAAAUACAGAAAUGUAGUUGACGAGCAGGAGGUUUAUCGAAUUUUCGGCGGAUGCCUCCAAA | < 1e-05 s⁻¹ | – | < 1e-05 s⁻¹ | < 1e-05 s⁻¹ | – |
| AUAAAAGCAACAGAACUACAGAAAUGUAGUUAACGAGGAGGAGGUUUAUCGAAUUUUCGGCGGAUGCCUCCAAA | < 1e-05 s⁻¹ | – | – | – | – |
| AUAAAGGCGCCAGAACUACAGAAAUGUAGUUGACGAGGAGGAGGUUUAUCGAAUUUUCAGCGGUUGCCUCCAAA | < 1e-05 s⁻¹ | – | < 1e-05 s⁻¹ | – | < 1e-05 s⁻¹ |

| Variant | self-cleavage kobs at 40 uM GlcN6P (glucosamine-6-phosphate [1]) | self-cleavage kobs at 2500 uM GlcN6P (glucosamine-6-phosphate [2]) | self-cleavage kobs at 10000 uM GlcN6P (glucosamine-6-phosphate [3]) | self-cleavage kobs at 160 uM GlcN6P (glucosamine-6-phosphate [4]) | self-cleavage kobs at 640 uM GlcN6P (glucosamine-6-phosphate [5]) |
| --- | --- | --- | --- | --- | --- |
| AUAAAAGCGCAAGAACUACAGAAAUGUAGUUGACGAGGAGGAGGUUUACCGAAUUUUCGGCGGAUGCCUCCAAA | < 1e-05 s⁻¹ | < 1e-05 s⁻¹ | < 1e-05 s⁻¹ | < 1e-05 s⁻¹ | – |
| AUAAAAGCGCUAGAACUACAGAAAUGUAGUUGACGAGGAGGAGGUUUAUCGAAUUUUCGGCGGCUGCCUCCAAA | < 1e-05 s⁻¹ | – | < 1e-05 s⁻¹ | – | – |
| AUAAAAGGGCCAGAACUACAGAAAUGUAGUUGACGAGGAGGAGGUUUAUCGAAUUUGCGGCGGAUGCCUGCAAA | 0.0017 ± 0.00055 s⁻¹ | – | – | – | – |
| AUAAAAGCGGCAGAACUACAGAAAUGUAGUUGUCGAGGAGGAUGUUUAUCGAAUUUUCGGCGCAUGCCUCGAAA | < 1e-05 s⁻¹ | – | – | – | – |
| AUAAAAGCGCCAGAACUACAGAAAUGUAGUUGUCGAGGAGGAUGUUUAUCGAAUUUUCGGCGGAUGCCUCCAAA | < 1e-05 s⁻¹ | < 1e-05 s⁻¹ | < 1e-05 s⁻¹ | < 1e-05 s⁻¹ | – |
| AUAAAAGCGCGAGAACUACAGAAAUGUAGUUGACGAGGAGGAGGUUUAUCGCAUUUUCGGCGGAUGCCUCCAAA | < 1e-05 s⁻¹ | < 1e-05 s⁻¹ | < 1e-05 s⁻¹ | < 1e-05 s⁻¹ | < 1e-05 s⁻¹ |
| AUAAAAGCGCCGGAUCUACAGAAAUGUAGUUGACGAGGAGGAGGUUUAACGAAGUUUCGGCGGAUGCCUCCAAA | < 1e-05 s⁻¹ | – | – | – | – |
| AUAAAAGCGCCAGAACUACAGAAAUGUAGUUGACGUGGAGUAGGUUUAUCGAAUUUUCGGCGGAUGCCUGCAAA | < 1e-05 s⁻¹ | – | – | – | – |
| AUAAAAGCGCCAGAACUACAGAAAUGUAGUUGUCGAGGAAGAGGUUUAUCGAAUUUUCGGCCGAUGCCUCCAAA | < 1e-05 s⁻¹ | – | – | – | – |
| AUAAAAGCGCCAGAACUACAGAAAUGUAGUUGCCGAGGAGGAGGUUUAUCGAAUUUUCGGCGGAGGCCUCCAAA | < 1e-05 s⁻¹ | – | – | < 1e-05 s⁻¹ | < 1e-05 s⁻¹ |
| AUAAAGGCGCCAGAACUACAGAAAUGUAGUUGACGUGGAGGAGGUUUAUUGAAUUUUCGGCGGAUGCCUCCAAA | < 1e-05 s⁻¹ | – | < 1e-05 s⁻¹ | – | < 1e-05 s⁻¹ |
| AUAAAAGCGCAAGGACUACAGAAAUGUAAUUGACAAGGAGGAGGUUUAUCGAGUUUUCGGCGGAUGCCUCCAAA | < 1e-05 s⁻¹ | – | – | – | – |
| AUAAAAGCGCCAGAACUACAGAAAUGUAGUUGCCGACGAGGAGGUUUAUCGAAUUUUCGGCGGAUGCCUCCAAA | < 1e-05 s⁻¹ | < 1e-05 s⁻¹ | – | – | < 1e-05 s⁻¹ |
| AUAAAAGCGCCAGAACUACAGAAAUGUAGUUGUCGCGGAGGAGGUUUAUCGAAUUUUCCGCGGAUGCCUCCAAA | < 1e-05 s⁻¹ | – | < 1e-05 s⁻¹ | – | – |
| AUAAAAGCCCCAGAACUACAGAAAUGUAGUUGACGAGGAGGAGGUUUAUCGAAAUGUCGGCGGAUACCUCCAAA | < 1e-05 s⁻¹ | – | – | – | – |
